Test results taken from US20220281949A1.

Tests used:
[1] = target: DR1-restricted TCR HA1.7; assay: flow cytometry: HA1.7-transduced primary CD4+ T cells stained with PE DR1 dimer and anti-CD4
[2] = target: DR1-restricted TCR HA1.7; assay: flow cytometry: TCR-transduced primary human T cells stained with PE class II dimer and anti-CD4
[3] = target: DR1-restricted TCR HA1.7; assay: flow cytometry: HA1.7-transduced primary CD4+ T cells stained with PE DR1 dimer and anti-CD4; remark: listed apart in the source

DR1^L114W/V143M dimer with the cognate peptide of TCR HA1.7 (peptide-MHC)
percent of cells in the dimer+ CD4+ quadrant [1]: 1.5%

DR1^L114W/V143M+2reps dimer specific to Flu-HA306-318 (peptide-MHC)
percent of cells in the dimer+ CD4+ quadrant [2]: 9.1%
percent of cells in the dimer+ CD4+ quadrant [3]: 53%
percent of cells in the dimer+ CD4+ quadrant [1]: 48.9%
